# Results published in US20100260668A1 (published 2010).
# “And” between values parts separate entries of the source, which are not always exact repeats. Identical values can stand only once.
# Biological target: T1, DLL4 (DLL4 ECD/His tag, R&D Systems 1506-D4-050) (UniProt Q9NR61 27-529)
# T1 construct: extracellular domain; not shown: His tag
# Assay: Direct bind ELISA on DLL4; reference antibody
row,EC50,Binder
1,0.23 nM and 0.24 nM,"AB069 (anti-DLL4 (seq. 2) parent antibody) (antibody, human IgG1, V domains shown, also called AB069VH; AB069VL) VH: QVQLVQSGAEVKKPGASVKISCKASGYSFTAYYIHWVKQAPGQGLEWIGYISSYNGATNYNQKFKGRVTFTTDTSTSTAYMELRSLRSDDTAVYYCARDYDYDVGMDYWGQGTLVTVSS VL: DIVMTQSPDSLAVSLGERATISCRASESVDNYGISFMKWFQQKPGQPPKLLIYAASNQGSGVPDRFSGSGSGTDFTLTISSLQAEDVAVYYCQQSKEVPWTFGGGTKVEIKR"
2,63.4 nM and 63.2 nM,"AB072 (anti-DLL4 (seq. 3) parent antibody) (antibody, human IgG1, V domains shown, also called AB072VH; AB072VL) VH: EVQLQQSGPELVKPGASVKMSCKASGYTFTSYVINWVKQKPGQGLEWIGLINPYNDGTKYNEKFKVKATLTSDKSSSTAYMELSSLTSEDSAVYYCASYYYGSRYYFDYWGQGTTLTVSS VL: DIQMTQSSSYLSVSLGGRVTITCKASDHINNWLAWYQQKPGNAPRLLISGATSLETGVPSRFSGSGSGKDYTLSITSLQTEDVATYYCQQYWSIPLTFGAGTKLELKR"
3,0.6 nM and 0.58 nM,"AB015 (anti-DLL-4 (seq. 1) parent antibody) (antibody, human IgG1, V domains shown, also called AB015VH; AB015VL) VH: EVQLVESGGGLVQPGGSLRLSCAASGFTFTDNWISWVRQAPGKGLEWVGYISPNSGFTYYADSVKGRFTISADTSKNTAYLQMNSLRAEDTAVYYCARDNFGGYFDYWGQGTLVTVSS VL: DIQMTQSPSSLSASVGDRVTITCRASQDVSTAVAWYQQKPGKAPKLLIYSASFLYSGVPSRFSGSGSGTDFTLTISSLQPEDFATTYYCQQSYTGTVTFGQGTKVEIKR"
4,0.22 nM and 0.21 nM,"AB073 (anti-DLL4 (seq. 4) parent antibody) (antibody, human IgG1, V domains shown, also called AB073VH; AB073VL) VH: EVQLQQSGPELEKPGASVKISCKASGYSFTGYNMNWVKQSNGKSLEWIGNIDPYFGGTNYNQKFKGKATLTVDKSSSTAYMQLKSLTSEDSAVYYCARNYDYDGGCFDYWGQGTTLTVSS VL: QAVVTQESALTTSPGETVTLTCRSSTGAVTTSNYANWVQEKPDHLFTGLIGGTNNRAPGVPARFSGSLIGDKAALTITGAQTEDEAIYFCALWYSNHWVFGGGTKLTVLG"

# Biological target: T1, DLL4 (DLL4 ECD/His tag, R&D Systems …)
# Assay: Direct bind ELISA on DLL4; DLL4 domain N-term., HC short, LC short
row,EC50,Binder
1,0.66 nM,"DVD513 (DLL4/VEGF DVD-Ig) (bispecific antibody, human IgG1, HC linker short, LC linker short; also called DVD513H; DVD513L) VH: EVQLQQSGPELEKPGASVKISCKASGYSFTGYNMNWVKQSNGKSLEWIGNIDPYFGGTNYNQKFKGKATLTVDKSSSTAYMQLKSLTSEDSAVYYCARNYDYDGGCFDYWGQGTTLTVSSASTKGPEVQLVESGGGLVQPGGSLRLSCAASGFTISDYWIHWVRQAPGKGLEWVAGITPAGGYTYYADSVKGRFTISADTSKNTAYLQMNSLRAEDTAVYYCARFVFFLPYAMDYWGQGTLVTVSS VL: QAVVTQESALTTSPGETVTLTCRSSTGAVTTSNYANWVQEKPDHLFTGLIGGTNNRAPGVPARFSGSLIGDKAALTITGAQTEDEAIYFCALWYSNHWVFGGGTKLTVLGQPKAAPDIQMTQSPSSLSASVGDRVTITCRASQDVSTAVAWYQQKPGKAPKLLIYSASFLYSGVPSRFSGSGSGTDFTLTISSLQPEDFATYYCQQSYTTPPTFGQGTKVEIKR"
2,0.62 nM,"DVD489 (DLL4/VEGF DVD-Ig) (bispecific antibody, human IgG1, HC linker short, LC linker short; also called DVD489H; DVD489L) VH: EVQLQQSGPELVKPGASVKMSCKASGYTFTSYVINWVKQKPGQGLEWIGLINPYNDGTKYNEKFKVKATLTSDKSSSTAYMELSSLTSEDSAVYYCASYYYGSRYYFDYWGQGTTLTVSSASTKGPEVQLVESGGGLVQPGGSLRLSCAASGFTISDYWIHWVRQAPGKGLEWVAGITPAGGYTYYADSVKGRFTISADTSKNTAYLQMNSLRAEDTAVYYCARFVFFLPYAMDYWGQGTLVTVSS VL: DIQMTQSSSYLSVSLGGRVTITCKASDHINNWLAWYQQKPGNAPRLLISGATSLETGVPSRFSGSGSGKDYTLSITSLQTEDVATYYCQQYWSIPLTFGAGTKLELKRTVAAPDIQMTQSPSSLSASVGDRVTITCRASQDVSTAVAWYQQKPGKAPKLLIYSASFLYSGVPSRFSGSGSGTDFTLTISSLQPEDFATYYCQQSYTTPPTFGQGTKVEIKR"

# Biological target: T1, DLL4 (DLL4 ECD/His tag, R&D Systems …)
# Assay: Direct bind ELISA on DLL4; DLL4 domain C-term., HC short, LC short
row,EC50,Binder
1,21.1 nM,"DVD514 (VEGF/DLL4 DVD-Ig) (bispecific antibody, human IgG1, HC linker short, LC linker short; also called DVD514H; DVD514L) VH: EVQLVESGGGLVQPGGSLRLSCAASGFTISDYWIHWVRQAPGKGLEWVAGITPAGGYTYYADSVKGRFTISADTSKNTAYLQMNSLRAEDTAVYYCARFVFFLPYAMDYWGQGTLVTVSSASTKGPEVQLQQSGPELEKPGASVKISCKASGYSFTGYNMNWVKQSNGKSLEWIGNIDPYFGGTNYNQKFKGKATLTVDKSSSTAYMQLKSLTSEDSAVYYCARNYDYDGGCFDYWGQGTTLTVSS VL: DIQMTQSPSSLSASVGDRVTITCRASQDVSTAVAWYQQKPGKAPKLLIYSASFLYSGVPSRFSGSGSGTDFTLTISSLQPEDFATYYCQQSYTTPPTFGQGTKVEIKRTVAAPQAVVTQESALTTSPGETVTLTCRSSTGAVTTSNYANWVQEKPDHLFTGLIGGTNNRAPGVPARFSGSLIGDKAALTITGAQTEDEAIYFCALWYSNHWVFGGGTKLTVLG"
2,30.5 nM,"DVD444 (VEGF/DLL4 DVD-Ig) (bispecific antibody, human IgG1, HC linker short, LC linker short; also called DVD444H; DVD444L) VH: EVQLVESGGGLVQPGGSLRLSCAASGFTISDYWIHWVRQAPGKGLEWVAGITPAGGYTYYADSVKGRFTISADTSKNTAYLQMNSLRAEDTAVYYCARFVFFLPYAMDYWGQGTLVTVSSASTKGPQVQLVQSGAEVKKPGASVKISCKASGYSFTAYYIHWVKQAPGQGLEWIGYISSYNGATNYNQKFKGRVTFTTDTSTSTAYMELRSLRSDDTAVYYCARDYDYDVGMDYWGQGTLVTVSS VL: DIQMTQSPSSLSASVGDRVTITCRASQDVSTAVAWYQQKPGKAPKLLIYSASFLYSGVPSRFSGSGSGTDFTLTISSLQPEDFATYYCQQSYTTPPTFGQGTKVEIKRTVAAPDIVMTQSPDSLAVSLGERATISCRASESVDNYGISFMKWFQQKPGQPPKLLIYAASNQGSGVPDRFSGSGSGTDFTLTISSLQAEDVAVYYCQQSKEVPWTFGGGTKVEIKR"
3,9.27 nM,"DVD490 (VEGF/DLL4 DVD-Ig) (bispecific antibody, human IgG1, HC linker short, LC linker short; also called DVD490H; DVD490L) VH: EVQLVESGGGLVQPGGSLRLSCAASGFTISDYWIHWVRQAPGKGLEWVAGITPAGGYTYYADSVKGRFTISADTSKNTAYLQMNSLRAEDTAVYYCARFVFFLPYAMDYWGQGTLVTVSSASTKGPEVQLQQSGPELVKPGASVKMSCKASGYTFTSYVINWVKQKPGQGLEWIGLINPYNDGTKYNEKFKVKATLTSDKSSSTAYMELSSLTSEDSAVYYCASYYYGSRYYFDYWGQGTTLTVSS VL: DIQMTQSPSSLSASVGDRVTITCRASQDVSTAVAWYQQKPGKAPKLLIYSASFLYSGVPSRFSGSGSGTDFTLTISSLQPEDFATYYCQQSYTTPPTFGQGTKVEIKRTVAAPDIQMTQSSSYLSVSLGGRVTITCKASDHINNWLAWYQQKPGNAPRLLISGATSLETGVPSRFSGSGSGKDYTLSITSLQTEDVATYYCQQYWSIPLTFGAGTKLELKR"
4,19.8 nM,"DVD466 (VEGF/DLL4 DVD-Ig) (bispecific antibody, human IgG1, HC linker short, LC linker short; also called DVD466H; DVD466L) VH: EVQLVESGGGLVQPGGSLRLSCAASGFTISDYWIHWVRQAPGKGLEWVAGITPAGGYTYYADSVKGRFTISADTSKNTAYLQMNSLRAEDTAVYYCARFVFFLPYAMDYWGQGTLVTVSSASTKGPEVQLVESGGGLVQPGGSLRLSCAASGFTFTDNWISWVRQAPGKGLEWVGYISPNSGFTYYADSVKGRFTISADTSKNTAYLQMNSLRAEDTAVYYCARDNFGGYFDYWGQGTLVTVSS VL: DIQMTQSPSSLSASVGDRVTITCRASQDVSTAVAWYQQKPGKAPKLLIYSASFLYSGVPSRFSGSGSGTDFTLTISSLQPEDFATYYCQQSYTTPPTFGQGTKVEIKRTVAAPDIQMTQSPSSLSASVGDRVTITCRASQDVSTAVAWYQQKPGKAPKLLIYSASFLYSGVPSRFSGSGSGTDFTLTISSLQPEDFATTYYCQQSYTGTVTFGQGTKVEIKR"
